Measured values reported in article PMC3807668, “Structure of the CRISPR Interference Complex CSM Reveals Key Similarities with Cascade” (Molecular Cell, 2013).
“And” between values parts separate entries of the source, which are not always exact repeats. Identical values can stand only once.

T1: Sso1428 with C-terminal tandem tag (Strep and 10x His) (S. solfataricus, UniProt Q97YA4 1-558, methylation (residues not given))
T1 chain: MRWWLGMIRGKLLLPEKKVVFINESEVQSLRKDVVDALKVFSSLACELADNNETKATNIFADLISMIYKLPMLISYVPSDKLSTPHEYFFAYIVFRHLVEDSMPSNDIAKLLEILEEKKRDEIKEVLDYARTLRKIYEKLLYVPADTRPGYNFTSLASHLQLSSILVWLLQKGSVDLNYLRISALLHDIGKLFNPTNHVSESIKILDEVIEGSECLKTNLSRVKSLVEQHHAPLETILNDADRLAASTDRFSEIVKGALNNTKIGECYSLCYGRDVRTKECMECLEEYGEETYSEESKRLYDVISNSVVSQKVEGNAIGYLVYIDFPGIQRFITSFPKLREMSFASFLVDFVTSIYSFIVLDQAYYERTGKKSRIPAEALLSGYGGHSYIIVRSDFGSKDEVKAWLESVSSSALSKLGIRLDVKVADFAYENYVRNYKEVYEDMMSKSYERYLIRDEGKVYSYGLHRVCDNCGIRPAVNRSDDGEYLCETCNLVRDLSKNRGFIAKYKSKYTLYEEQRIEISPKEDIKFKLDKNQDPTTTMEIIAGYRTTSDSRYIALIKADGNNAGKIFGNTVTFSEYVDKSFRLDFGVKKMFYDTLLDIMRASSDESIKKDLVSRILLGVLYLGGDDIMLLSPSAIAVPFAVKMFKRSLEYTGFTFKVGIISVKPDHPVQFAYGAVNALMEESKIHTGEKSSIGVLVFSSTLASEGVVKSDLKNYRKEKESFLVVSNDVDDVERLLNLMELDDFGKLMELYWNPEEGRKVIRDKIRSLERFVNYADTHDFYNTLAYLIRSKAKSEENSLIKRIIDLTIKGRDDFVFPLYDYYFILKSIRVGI

B1: Sso1424 (natural protein, UniProt Q97YA8 16-139, looked up)
chain: SSQDLLDIATRIAISAIKPKPKSNKPEPYVDSSTINSLLSFLQSRRNVNELLLYIMRQAGRDEIDEETGKLLLASLKDRELKDAVNLLGYVKWVYDTLTGLKVNYNNVKGVKTFKELVNILSKV
modifications: acetylated N-terminal Ser-16; seven methylated lysines (positions not given)
notes: Sso1424, small subunit (probably Csm2) of the CSM complex of S. solfataricus; three copies in the CSM complex; also called small subunit; Csm2; source: endogenous, S. solfataricus PH1-16; co-purified with the tagged subunit (HisTrap, monoQ, gel filtration)
B2: Sso1432 (natural protein, UniProt Q97YA0 1-252, looked up)
chain: MVIQVFRLNFRLRTGFRVGGGQEVGDNVIRQLRIGVEGVMIPASSWKGMFRRVSEIVLNSEDHFEEHSKKEVDTRTINALLKSDEKFRRIAISKVGKEVITQNGINVDKLDSESLSDLRRIYNEYNCPIERLYGSNYFAGGITISDSVIPNASIMERTHVTIERKSKKASEKHLFSEEIIDAEKIEVKVIVRNEFELWKNSLKLLREIGYFIGGSKSRGIGYIVLDEKESEYAVINNFSETPKFSELKRYLS
modifications: methylation (residues not given)
notes: Sso1432, RAMP subunit of the CSM complex of S. solfataricus; also called RAMP subunit; Csm3 paralog; source: endogenous, S. solfataricus PH1-16; co-purified with the tagged subunit (HisTrap, monoQ, gel filtration)
B3: Sso1431 (untagged, in the complex purified by tagged Sso1428) (natural protein, UniProt Q97YA1 1-304, looked up)
chain: MILIKLKVKGYITTQMRRIRNYYFSITNYIPSTTLRGAILAEYYNQTGKIDENFYVSPAYPIKTAPAHYFSPAKERKGDEFIEVKRILEKKEKEFEANKPIEEIMKLEIDGKHPKPKIGSLITYEGETDKENKYREFSSKSIIQMHVAIDKTSISSYKGMLFAYEYKEFDEMWAIASDSEVIDTVKRIKIGRGKNRGNKVVDVEKVREVSLDQSKGLLYCLSPCIGSLFGKTFFKAKYIIGDKSIYSGWFTVDSFSGQKPVFETLREGSLVYVESFSNEKSLMPAGLNFMLRISDLSSILNKVS
modifications: methylation; phosphorylation (residues not given)
notes: Csm4 (Sso1431, Cas5 subfamily RAMP protein) of the CSM complex of S. solfataricus; also called Csm4; Cas5-like RAMP subunit; source: endogenous, S. solfataricus PH1-16; co-purified with tagged Sso1428 (HisTrap, monoQ, gel filtration)
B4: Sso1426 (natural protein, UniProt Q97YA6 1-281, looked up)
chain: MVLMVNYTFIDKRVIKRTTMIEGDVETVSPLKIGGGKDNFDPSSLAKDSILKDVEGRPIIPGSSWKGIFRSTGERILRLRNIEVCSGIGKDYCLNNNRKERDFNSALKENVDQALEIFWDYTCLNCKVFGTMSVIGAVRFLDSLPISYSLNTRSMIAISRTEGAVARRALVTVEYVDVGSKFSFKMMGYNLPNYAIGYLITIMKNIHDGFTQVGGHKSRGFGFVKFGKVKFTDLGEKRIGDEDIQVKDVGDLVEGNGDEFFGRMKPFMEAFNNAKIPYPKK
modifications: methylation (residues not given)
notes: Sso1426, RAMP subunit assigned to the Csm3 (Cas7-like) family, CSM complex of S. solfataricus; four copies in the CSM complex; its mass lies within 70 Da of that of Sso1427; also called Csm3; Cas7 family RAMP subunit; source: endogenous, S. solfataricus PH1-16; co-purified with the tagged subunit (HisTrap, monoQ, gel filtration)
B5: Sso1425 (natural protein, UniProt Q97YA7 1-250, looked up)
chain: MKMSCMDLDVITTVVKIEGKLRNETLLRVGKGKTQDFAEATDNPIIKYRDRPLIPGSSLKGAFRSLVESYTKSLNDSKYYVCDLDDNSCVSCEEKKKDNGIVEGRYCIPCILFGFKDLASRVYILDAIAEKYSISQRTMVAINRVFGGQMPGHLYTLDYVDPGSEFSFMMMIYNLNLIEGEKDWKAKSVEALKFLLATLVREGIFVGARKSVGYGLIKLVDAKVSLYKAPDHLVSPVIVKKLEEVIGTNG
modifications: methylation; phosphorylation (residues not given)
notes: Sso1425, RAMP subunit of the CSM complex of S. solfataricus; also called RAMP subunit; Csm3 paralog; source: endogenous, S. solfataricus PH1-16; co-purified with the tagged subunit (HisTrap, monoQ, gel filtration)
B6: Sso1427 (natural protein, UniProt Q97YA5 1-275, looked up)
chain: MQRSPIRRSNYTPRNEKGLEGVIELQLNVVSDYLHVGSGKYDVEVMRSVSDVKRLVEDYLSGGNKRIPNNVDQYFSMVAFLMVRNKDNVVIPGSTIKGMVRSRLELSVPGSCYIVTGHSTSSSAVYKRIFNPDPNRGSDRFDVNKFPQVCPVCDLLGNMGLASRVSLSDFVMTSGKVDYVNVKGRDYEVVTKGSIFAGKVLYKSLKPVEIGMLLYGFGFVKDCNGSKVMLLGRFKFSDKRFGRVKFSLKTPIADCNKLVSDFVKQFNPRYINEEW
modifications: methylation (residues not given)
notes: Sso1427, RAMP subunit of the CSM complex of S. solfataricus; its mass lies within 70 Da of that of Sso1426; also called RAMP subunit; Csm3 paralog; source: endogenous, S. solfataricus PH1-16; co-purified with the tagged subunit (HisTrap, monoQ, gel filtration)
B7: Sso1430 (natural protein, UniProt Q97YA2 1-206, looked up)
chain: MIPIKVSMRNLSSLTIAGGSTISSIDIPLNPLGVPPSTIKGTMRTAVHNLLPNGYTSCGEVEPESIREAHKNGVCDVCKLFGYPDSLTGCFTIDVSKTDYRTSYITRVSIDDKTQRAKEGSLFTQQIILPNSDISFTVYYNCNDERLFKLLLYSILDLRYWRLGRNTMIDVKVNNVEEICKSVKCDEEINGILNQLSRYLWEAENK
modifications: methylation (residues not given)
notes: Sso1430, subunit of the CSM complex of S. solfataricus; also called RAMP subunit; Csm3 paralog; source: endogenous, S. solfataricus PH1-16; co-purified with the tagged subunit (HisTrap, monoQ, gel filtration)

molecular target: B6; test: cross-linking; purified CSM complex (1 ug/ul) with a 1:1 mixture of d4 and d0 BS3, 1 hr at room temperature; cross-linked peptides found by MS (MassMatrix) and validated by hand; conditions: both partners purified

| Binder | binding result |
| --- | --- |
| B1 | binds |

Molecular target: T1, Sso1428 with C-terminal tandem tag …
Test: quantitative proteomics with isotope-labelled dipeptides (LC-MS); purified CSM complex spiked with synthetic (15N,13C)-labelled dipeptides joining a peptide of each subunit to the reference peptide of Sso1428, trypsin digest, LTQ-Orbitrap; ratio of peak areas
Conditions: both partners purified

| Binder | stoichiometry N |
| --- | --- |
| B2 | 0.92 subunit:Sso1428 and 0.91 subunit:Sso1428 and 0.96 subunit:Sso1428 and 0.93 subunit:Sso1428 |
| B3 | 0.67 subunit:Sso1428 and 0.65 subunit:Sso1428 and 0.7 subunit:Sso1428 |
| B4 | 4.85 subunit:Sso1428 and 4.81 subunit:Sso1428 and 4.73 subunit:Sso1428 and 4.8 subunit:Sso1428 |
| B5 | 1.45 subunit:Sso1428 and 1.35 subunit:Sso1428 and 1.56 subunit:Sso1428 |
| B6 | 0.8 subunit:Sso1428 and 0.79 subunit:Sso1428 and 0.83 subunit:Sso1428 and 0.81 subunit:Sso1428 |
| B1 | 3.62 subunit:Sso1428 and 3.51 subunit:Sso1428 and 4.03 subunit:Sso1428 and 3.72 subunit:Sso1428 |

Molecular target: T1, Sso1428 with C-terminal tandem tag …
Test: native MS + other: quantitative proteomics with isotope-labelled peptides; exhaustive mass search on the intact mass 427,611 Da; copy numbers of Sso1424, Sso1425 and Sso1426 allowed to vary by one, the others fixed by Table 1; one hit within a mass error of 3%
Conditions: both partners purified

| Binder | stoichiometry N |
| --- | --- |
| B2 | 1 subunit:Sso1428 |
| B3 | 1 subunit:Sso1428 |
| B4 | 4 subunit:Sso1428 |
| B5 | 1 subunit:Sso1428 |
| B6 | 1 subunit:Sso1428 |
| B1 | 3 subunit:Sso1428 |
| B7 | 1 subunit:Sso1428 |

Molecular target: the molecule itself
Test: as above
Conditions: not given

| Binder | stoichiometry N [copies] |
| --- | --- |
| B4 | 4 |
| B1 | 3 |

molecular target: B7; test: native MS; purified CSM complex disassembled in 200 mM ammonium acetate with 5%-20% acetic acid (pH 3.9, 3.5, 3.2); subcomplexes of 357 to 120 kDa assigned by tandem MS; interaction map deduced from the disassembly pattern with the help of the EM shape; conditions: both partners purified

| Binder | binding result |
| --- | --- |
| B1 | binds |

molecular target: B3; test: as above; conditions: both partners purified

| Binder | binding result |
| --- | --- |
| B6 | binds |
